Measured values taken from US20100075907A1, “NEUROMEDIN U RECEPTOR AGONISTS AND USES THEREOF” (priority 2006, published 2010).
Starred links: 1 amine or outer side, 2 acyl side, 3 side chain; linkers in the order of their positions; H or OH if unused. Non-standard residues stand in square brackets, D forms with d. Residues, ends and D or L forms follow the SMILES beside them. *: point of attachment. X2 = CCN1C(=O)CC(SC[C@H](NC(C)=O)C(=O)NCCCOCCOCCOCCCN*)C1=O; Succinimide(1-Et,3-yl) = CCN1C(=O)CC(*)C1=O; Palmitoyl = CCCCCCCCCCCCCCCC(=O)*; Suc = O=C(CCC(=O)[*:2])[*:1]

Biological target: T1, rat NMUR1-TTG (Rattus norvegicus, UniProt Q9JJI5)
T1 sequence (Q9JJI5 1-425): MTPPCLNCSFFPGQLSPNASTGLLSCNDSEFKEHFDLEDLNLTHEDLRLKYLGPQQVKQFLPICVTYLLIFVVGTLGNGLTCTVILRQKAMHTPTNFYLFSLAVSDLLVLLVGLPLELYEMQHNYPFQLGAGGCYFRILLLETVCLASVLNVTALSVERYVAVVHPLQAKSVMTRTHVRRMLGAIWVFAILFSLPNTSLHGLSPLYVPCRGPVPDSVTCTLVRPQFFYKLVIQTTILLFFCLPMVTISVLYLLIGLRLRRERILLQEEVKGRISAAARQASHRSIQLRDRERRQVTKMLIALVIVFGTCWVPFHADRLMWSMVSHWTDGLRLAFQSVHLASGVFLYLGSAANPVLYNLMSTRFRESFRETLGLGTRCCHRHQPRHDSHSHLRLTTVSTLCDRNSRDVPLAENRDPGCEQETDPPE
Experiment: FLIPR calcium mobilization assay, rat NMUR1-TTG
Format: cell-based
Set-up: expressed in transfected cells; host or cells: FLP-In CHO or HEK-293 FLP-In cells (pcDNA5)
Details: for EC50: FLIPR
Excerpt: Human, mouse or rat cDNAs encoding NMUR1 or NMUR2 (as described in Howard et al. Nature 406: 70-74 (2000) were subcloned in pcDNA5 (Invitrogen) and transfected into FLP-In CHO cells and HEK-293 FLP-In cells purchased from Invitrogen (Carlsbad, Calif.) using lipofectamine (Invitrogen). The Flp-In system allows integration and expression of a particular gene of interest at a specific genomic location utilizing the Flp recombinase from yeast. The transfected cells were selected by growth in medium containing 200 μg/mL hygromycin (Invitrogen). Populations were frozen at early passage numbers, and these stocks were used for further studies. Stable clones that expressed the mRNAs were identified functionally by FLIPR as well as by RT-PCR. […] Two different rodent NMUR1 cell lines were thus generated: one with the codon as predicted from the genomic databases and another cell line with an engineered methionine (ATG) as the start codon. Additionally, stable cell lines expressing the human receptors were generated in HEK-293/aeq17 cells which stably express the aequorin gene under the CMV promoter. The human NMUR2 cDNA was cloned into pcDNA3.1 and human NMUR1 was subcloned into pIRES-puro (Clontech, Mountain View, Calif.), after transfection cells were selected in media containing G418 and either hygromycin (NMUR2) or puromycin (NMUR1).
The NMU receptors signal primarily through Gαq/11 proteins; therefore calcium mobilization assays can be utilized for functional activity.
Stable cell lines expressing human and or rodent NMUR1 or human NMUR2 receptors were plated at a density of 12,000 cells per well overnight on poly-lysine coated 384-well black-walled plates. The following day, the media was removed from the plates and the cells were subsequently loaded with Fluo-3 (Molecular Probes), a calcium sensitive dye, diluted in FLIPR buffer (1× Hank's buffered saline containing 20 mM HEPES, 0.1% BSA, 2.5 mM probenecid (Sigma) and 1.6 mM TR40). All reagents are from Invitrogen unless otherwise noted. Peptide stocks were resuspended in DMSO at a stock concentration of 2 mM and diluted in FLIPR buffer on the day of the experiment to a 4 μM working stock solution.
After a 90 minute incubation at room-temperature, cell plates were loaded onto a FLIPR (Molecular Devices) to monitor cellular fluorescence (excitation=488 nm; emission=540 nm) before and after compound/peptide addition. Eight to twelve point dose responses were tested on NMUR-expressing cell lines using FLIPR with 1 μM peptide as the highest dose. The response after peptide addition was taken as the maximum fluorescence units minus the fluorescence immediately prior to stimulation for each well. EC50 values were calculated using GraphPad Prism (San Diego, Calif.) software.
In vitro responses of Neuromedin U receptor agonists (NMU1 to NMU25) in the FLIPR assay for human (Table 3), mouse (Table 4) and rat (Table 5) NMUR1 and NMUR2. EC50s are reported in nM values. Percent activity refers to the maximum response at 1 μM compared to the hNMU-25 response at the same concentration. NT=not tested.

[1] = maximum response at 1 μM compared to hNMU-25, rat NMUR1-TTG

Row | % Activity [1] [%] | EC50 (rat NMUR1-TTG) [µM] | Compound | % Activity (functional, rat R1-TTG, relative to native hNMU responses) [%]
1 | 39.8 | – | Ac-C4-C4-FRVDEEFQSPFASQSRGYFLFRPRN-CONH2 ({Ac-C(PEG 20 kDa)-C(PEG 20 kDa)}-FRVDEEFQSPFASQSRGYFLFRPRN-NH2) [NMU23, C4 = Cys(PEG)20 kDa] | –
2 | 93.5 | 0.081 | Pam-C2FRVDEEFQSPFASQSRGYFLFRPRN-CONH2 ({Palmitoyl-C(PEG 40 kDa)}-FRVDEEFQSPFASQSRGYFLFRPRN-NH2) [NMU25, Pam = palmitoyl; C2 = Cys(PEG)240 kDa] | –
3 | 77.5 | 0.22 | Ac-C4FRVDEEFQSPFASQSRGYFLFRPRN-CONH2 ({Ac-C(PEG 20 kDa)}-FRVDEEFQSPFASQSRGYFLFRPRN-NH2) [NMU21, C4 = Cys(PEG)20 kDa] | –
4 | 96.4 | – | CCN1C(=O)CC(SC[C@H](NC(C)=O)C(=O)N[C@@H](CSC2CC(=O)N(CC)C2=O)C(=O)N[C@@H](Cc2ccccc2)C(=O)N[C@@H](CCCNC(=N)N)C(=O)N[C@H](C(=O)N[C@@H](CC(=O)O)C(=O)N[C@@H](CCC(=O)O)C(=O)N[C@@H](CCC(=O)O)C(=O)N[C@@H](Cc2ccccc2)C(=O)N[C@@H](CCC(N)=O)C(=O)N[C@@H](CO)C(=O)N2CCC[C@H]2C(=O)N[C@@H](Cc2ccccc2)C(=O)N[C@@H](C)C(=O)N[C@@H](CO)C(=O)N[C@@H](CCC(N)=O)C(=O)N[C@@H](CO)C(=O)N[C@@H](CCCNC(=N)N)C(=O)NCC(=O)N[C@@H](Cc2ccc(O)cc2)C(=O)N[C@@H](Cc2ccccc2)C(=O)N[C@@H](CC(C)C)C(=O)N[C@@H](Cc2ccccc2)C(=O)N[C@@H](CCCNC(=N)N)C(=O)N2CCC[C@H]2C(=O)N[C@@H](CCCNC(=N)N)C(=O)N[C@@H](CC(N)=O)C(N)=O)C(C)C)C1=O (some centres unmarked) [NMU22] (Ac-C(Succinimide(1-Et,3-yl))C(Succinimide(1-Et,3-yl))FRVDEEFQSPFASQSRGYFLFRPRN-NH2) | –
5 | 67.7 | – | CCCCCCCCCCCCCCCC(=O)N[C@@H](CSC1CC(=O)N(CC)C1=O)C(=O)N[C@@H](Cc1ccccc1)C(=O)N[C@@H](CCCNC(=N)N)C(=O)N[C@H](C(=O)N[C@@H](CC(=O)O)C(=O)N[C@@H](CCC(=O)O)C(=O)N[C@@H](CCC(=O)O)C(=O)N[C@@H](Cc1ccccc1)C(=O)N[C@@H](CCC(N)=O)C(=O)N[C@@H](CO)C(=O)N1CCC[C@H]1C(=O)N[C@@H](Cc1ccccc1)C(=O)N[C@@H](C)C(=O)N[C@@H](CO)C(=O)N[C@@H](CCC(N)=O)C(=O)N[C@@H](CO)C(=O)N[C@@H](CCCNC(=N)N)C(=O)NCC(=O)N[C@@H](Cc1ccc(O)cc1)C(=O)N[C@@H](Cc1ccccc1)C(=O)N[C@@H](CC(C)C)C(=O)N[C@@H](Cc1ccccc1)C(=O)N[C@@H](CCCNC(=N)N)C(=O)N1CCC[C@H]1C(=O)N[C@@H](CCCNC(=N)N)C(=O)N[C@@H](CC(N)=O)C(N)=O)C(C)C (some centres unmarked) [NMU24] (Palmitoyl-C(Succinimide(1-Et,3-yl))FRVDEEFQSPFASQSRGYFLFRPRN-NH2) | –
6 | 105.3 | – | CCN1C(=O)CC(SC[C@H](NC(C)=O)C(=O)N[C@@H](C)C(=O)N[C@@H](CO)C(=O)N[C@@H](CCC(N)=O)C(=O)N[C@@H](CO)C(=O)N[C@@H](CCCNC(=N)N)C(=O)NCC(=O)N[C@@H](Cc2ccc(O)cc2)C(=O)N[C@@H](Cc2ccccc2)C(=O)N[C@@H](CC(C)C)C(=O)N[C@@H](Cc2ccccc2)C(=O)N[C@@H](CCCNC(=N)N)C(=O)N2CCC[C@H]2C(=O)N[C@@H](CCCNC(=N)N)C(=O)N[C@@H](CC(N)=O)C(N)=O)C1=O (some centres unmarked) [NMU17] (Ac-C(Succinimide(1-Et,3-yl))ASQSRGYFLFRPRN-NH2) | –
7 | 100 | – | CCN1C(=O)CC(SC[C@H](NC(C)=O)C(=O)N[C@@H](Cc2ccccc2)C(=O)N[C@@H](CCC(N)=O)C(=O)N[C@@H](CO)C(=O)N2CCC[C@H]2C(=O)N[C@@H](Cc2ccccc2)C(=O)N[C@@H](C)C(=O)N[C@@H](CO)C(=O)N[C@@H](CCC(N)=O)C(=O)N[C@@H](CO)C(=O)N[C@@H](CCCNC(=N)N)C(=O)NCC(=O)N[C@@H](Cc2ccc(O)cc2)C(=O)N[C@@H](Cc2ccccc2)C(=O)N[C@@H](CC(C)C)C(=O)N[C@@H](Cc2ccccc2)C(=O)N[C@@H](CCCNC(=N)N)C(=O)N2CCC[C@H]2C(=O)N[C@@H](CCCNC(=N)N)C(=O)N[C@@H](CC(N)=O)C(N)=O)C1=O (some centres unmarked) [NMU19] (Ac-C(Succinimide(1-Et,3-yl))FQSPFASQSRGYFLFRPRN-NH2) | –
8 | 107.5 | – | CCN1C(=O)CC(SC[C@H](NC(C)=O)C(=O)NCCCOCCOCCOCCCNC(=O)CCC(=O)N[C@@H](Cc2ccccc2)C(=O)N[C@@H](CC(C)C)C(=O)N[C@@H](Cc2ccccc2)C(=O)N[C@@H](CCCNC(=N)N)C(=O)N2CCC[C@H]2C(=O)N[C@@H](CCCNC(=N)N)C(=O)N[C@@H](CC(N)=O)C(N)=O)C1=O (some centres unmarked) [NMU15, Ac-C1-Ttds-FLFRPRN-CONH2] ({X2-Suc}-FLFRPRN-NH2) | –
9 | 93.8 | 0.0244 | Ac-C2FQSPFASQSRGYFLFRPRN-CONH2 ({Ac-C(PEG 40 kDa)}-FQSPFASQSRGYFLFRPRN-NH2; not fully specified; printed as Ac-C2FQSPFASQSRGYFLFRPRN-CONH2) [NMU20, C2 = Cys(PEG)240 kDa] | –

Row | Compound | % Activity [1] [%] | EC50 (rat NMUR1-TTG) [µM] | % Activity (functional, rat R1-TTG, relative to native hNMU responses) [%]
10 | CCN1C(=O)CC(SC[C@H](NC(C)=O)C(=O)N[C@@H](Cc2ccccc2)C(=O)N[C@@H](CCCNC(=N)N)C(=O)N[C@H](C(=O)N[C@@H](CC(=O)O)C(=O)N[C@@H](CCC(=O)O)C(=O)N[C@@H](CCC(=O)O)C(=O)N[C@@H](Cc2ccccc2)C(=O)N[C@@H](CCC(N)=O)C(=O)N[C@@H](CO)C(=O)N2CCC[C@H]2C(=O)N[C@@H](Cc2ccccc2)C(=O)N[C@@H](C)C(=O)N[C@@H](CO)C(=O)N[C@@H](CCC(N)=O)C(=O)N[C@@H](CO)C(=O)N[C@@H](CCCNC(=N)N)C(=O)NCC(=O)N[C@@H](Cc2ccc(O)cc2)C(=O)N[C@@H](Cc2ccccc2)C(=O)N[C@H](C)C(=O)N[C@@H](Cc2c[nH]c3ccccc23)C(=O)N[C@@H](CCCNC(=N)N)C(=O)N2CCC[C@H]2C(=O)N[C@@H](CCCNC(=N)N)C(=O)N[C@@H](CC(N)=O)C(N)=O)C(C)C)C1=O (some centres unmarked) [NMU13] (Ac-C(Succinimide(1-Et,3-yl))FRVDEEFQSPFASQSRGYF[dA]WRPRN-NH2) | 94.6 | – | 94
